Residue numbers refer to the chain shown, from its start. In names and notes the source's numbering stands. Each block holds one molecule with its values, some of them ahead of it.
What was measured:
[1] = biological target: type X collagen (Homo sapiens) (UniProt Q03692); settings: cited from earlier work
[2] = biological target: mouse type IV collagen (mouse); test: SPR; BIAcore X; collagens immobilised on CM5 chips by amide coupling, FKBP22 injected; 20 °C; HBS-P (10 mM Hepes pH 7.4, 150 mM NaCl, 0.005% Surfactant P20) with 1 mM CaCl2; flow 10 µL/min; steady-state affinity model for type IV collagen - WT FKBP22, Langmuir-binding model for type X collagen - M48K FKBP22
[3] = biological target: T1, human recombinant type X collagen (human, UniProt Q03692 19-680); test: as above; settings: both partners purified
T1 construct: type X collagen, human, recombinant; source: 293 cells, purified as described previously
T1 sequence (Q03692 19-680): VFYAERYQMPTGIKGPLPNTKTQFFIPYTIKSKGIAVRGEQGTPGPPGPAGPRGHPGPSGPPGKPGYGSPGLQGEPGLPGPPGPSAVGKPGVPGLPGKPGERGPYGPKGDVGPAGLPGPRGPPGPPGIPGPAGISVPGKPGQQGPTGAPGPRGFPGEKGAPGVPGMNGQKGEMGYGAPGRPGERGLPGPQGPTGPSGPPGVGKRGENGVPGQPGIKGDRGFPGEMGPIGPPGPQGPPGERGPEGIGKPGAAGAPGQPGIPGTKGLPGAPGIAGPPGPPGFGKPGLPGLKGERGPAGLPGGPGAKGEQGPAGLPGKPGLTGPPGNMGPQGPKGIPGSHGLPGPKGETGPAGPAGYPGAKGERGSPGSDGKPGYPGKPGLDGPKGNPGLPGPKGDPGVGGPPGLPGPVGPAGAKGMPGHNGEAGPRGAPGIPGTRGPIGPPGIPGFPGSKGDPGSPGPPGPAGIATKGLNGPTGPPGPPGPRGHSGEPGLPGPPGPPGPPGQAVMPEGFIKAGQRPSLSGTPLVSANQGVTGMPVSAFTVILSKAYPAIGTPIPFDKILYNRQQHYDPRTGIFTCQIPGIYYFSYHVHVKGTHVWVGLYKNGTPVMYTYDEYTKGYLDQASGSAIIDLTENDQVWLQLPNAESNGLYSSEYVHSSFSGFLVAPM

Sequence of type X collagen (Homo sapiens) (Q03692 19-680): as above

Molecule: FKBP22 (from UniProt Q9NWM8)
Kd [1]: 43 µM

Kd [2]: 310 µM
B1: recombinant human wild type FKBP22 (FK506 Binding Protein 22 kDa) (enzyme)
chain: LIPEPEVKIEVLQKPFICHRKTKGGDLMLVHYEGYLEKDGSLFHSTHKHNNGQPIWFTLGILEALKGWDQGLKGMCVGEKRKLIIPPALGYGKEGKGKIPPESTLIFNIDLLEIRNGPRSHESFQEMDLNDDWKLSKDEVKAYLKKEFEKHGAVVNESHHDALVEDIFDKEDEDKDGFISAREFTYKHDEL

Kd [3]: 5.3 ± 4 µM
B2: recombinant human M48K FKBP22 (Met48Lys) (enzyme)
chain: B1 chain with M28K
notes: The mutation was found in a patient with kEDS; PDB 4MSP is the WT structure (parent); also called mutant FKBP22; source: E. coli BL21 (DE3), solubilised with 2 M urea, purified (Co2+-chelating column, enterokinase cleavage, Phenyl column)

From article PMC6965642, “The novel missense mutation Met48Lys in FKBP22 changes its structure and functions” (Scientific Reports, 2020)
